Experimental data taken from doi:10.1101/2025.10.13.682252.

Biological target: Biotinylated peptide BubR1 WT (Q293 to R302) (human)
Test: pull-down

- fold of protein bound against the W295A peptide: 5 fold
Substance: GST-tagged BubR1 TPR (wild type) (from UniProt O60566 1-230) (domain or fragment)
